The numbers were not newly measured in US20110212858A1, “SYNTHETIC POLY D/L LYSINE FOR CONTROL OF DIRECTION AND RATE OF NEURITE GROWTH AND REGENERATION” (CHILDRENS HOSPITAL LOS ANGELES, priority 2008, published 2011), which cites them from elsewhere.

The conditions of the data set: requires storage at −80° C.

Regarding laminin, the shelf life result is “limited shelf life”.
